Assay results reported in patent US6998240B2, “Screen for selective inhibitors or activators of Smad protein function” (Wisconsin Alumni Research Foundation, priority 2001, dated 2006).
No end group written: not given here.

How the values were obtained:
Smad3-P = molecular target: T1, Smad3-P (Homo sapiens, UniProt P84022); experiment: HTRF assay of FAST / Jun Smad interaction motif peptide binding to Smad3-P
T1 construct: Smad3; 1–425; pBlueBac; His; made in house; host or cells: Sf9 insect cells (baculovirus), co-infected with virus for human Alk5 T204D
Description: The HTRF assay for detecting Smad protein interactions was used to quantify binding between the FAST Smad interaction motif and purified Smad 3 (phosphorylated). The indicated amounts of peptide or peptide aptamer were added as competitive inhibitors.
All three assays use a Eu-chelate α-His epitope tag antibody as the donor. The antibody recognizes the hexahistidine epitope tag on the Smad proteins produced in the baculovirus expression system described above. […] The peptides are synthesized to comprise the Smad interaction domain motif from human FAST or c-Jun (FIG. 3).

[1] = molecular target: IC5-labelled GST-CBP fusion protein [GST: P08515]; experiment: HTRF, Eu-anti-GST donor plus GST-CBP-IC5 acceptor, well B07
[2] = molecular target: IC5-labelled GST-CBP fusion protein [GST: P08515]; experiment: HTRF, Eu-anti-GST donor plus GST-CBP-IC5 acceptor, well B08
[3] = molecular target: phosphorylated Smad2 (His-tagged, full length, from Sf9 cells co-infected with Alk5 T204D virus) (UniProt Q15796); experiment: HTRF competition against biotinylated FAST peptide
Smad2-P = molecular target: T2, Smad2-P (Homo sapiens, UniProt Q15796); experiment: HTRF assay of biotin-FAST peptide binding to Smad2-P (competition); details: for Average Normalized Counts / Percent of Control (minus Background): Biotin-FAST binding to Smad2-P
T2 construct: Smad2; 1–467; pBlueBac; His; made in house; host or cells: Sf9 insect cells (baculovirus), co-infected with virus for membrane-targeted human Alk5 T204D
From the text: To establish HTRF assays for Smad protein interactions, we have used reagents from Wallac-Perkin Elmer and Packard that include Europium-cryptate coupled to α-His epitope tag antibody, α-GST antibody or Streptavidin. As acceptor fluorophores we have used allophycocyanin (Packard's XL665) coupled to Streptavidin or direct labeling of GST-fusion protein with IC5 (Dojindo). Reagents are mixed in a 50 microliter volume in the wells of a 384 Black non-treated microwell plate (Corning) and HTRF detected in a Wallac Victor V multimode plate reader. The reader detects emission at 615 nm from the Europium chelate donor and at 665 nm from the APC or IC5 acceptor. Background, cross-talk and high FRET wells can be indicated on the plate map to allow the machine to compute a normalized value as a ratio Rn=(ET/D) Dmax where ET=A−BI−(C×D). • A—Fluorescence at 665 nm • BI—Blank (buffer only) at 665 nm • D—Fluorescence at 615 nm • C—Cross-talk correction value calculated from wells containing only donor fluorophore • (from “Quench Correction for LANCE TR-FRET” by Perkin-Elmer Wallace)
Over the past several months we have developed three HTRF assays for Smad binding interactions. All three assays use a Eu-chelate α-His epitope tag antibody as the donor. The antibody recognizes the hexahistidine epitope tag on the Smad proteins produced in the baculovirus expression system described above. As acceptors, we have used Streptavidin conjugated to allophycocyanin (Packard) that binds to biotinylated peptides. The peptides are synthesized to comprise the Smad interaction domain motif from human FAST or c-Jun (FIG. 3). The FAST 24-mer amino acid sequence is based on the homology between FAST, Mixer and Milk reported by Germain and colleagues (Germain, S., et al., supra, 2000). The24-mer C-JUN sequence is based on studies using deletions and gene fragments to define the Smad interaction motif (Zhang, Y., et al., supra, 1998; Liberati, N. T. et al., Proc. Natl. Acad. Sci. USA 96:4844–9, 1999). We also have developed an HTRF assay using IC5-GST-CBP, a fusion protein comprising the Smad interaction domain motif from CBP (a generous gift of Dr. Yigong Shi, Princeton University).
The assays are done in a 50 μl volume in the well of a 384-well plate. The assay buffer, as recommended by Packard for their HTRF reagents is 50 mM K-Hepes pH 7.0, 400 mM KF and 0.1% BSA. The high concentration of KF is recommended for the Eu(K) reagents from Packard. […] We have also optimized through many titrations the amount of Smad protein (220 ng/well, ˜4 pmoles per well of monomer), the concentration of biotinylated peptide (1 uMolar for FAST and C-JUN), the amount of Eu-anti-His tag antibody (36 ng/well) and the amount of Streptactin-APC (0.5 μg/well).
We used the FAST-SmadP HTRF assay described above. […] After 1 hr at room temperature, Streptavidin-APC was added to each well and 30 minutes later the fluorescence emissions at 615 nm and 665 nm were read in a PE-Wallac Victor V.

[4] = molecular target: Smad4 (Strep-tagged, full length) (UniProt Q13485); experiment: HTRF, well D20 Smad4
Smad4 (Strep-tagged, full length), sequence (Q13485 whole entry): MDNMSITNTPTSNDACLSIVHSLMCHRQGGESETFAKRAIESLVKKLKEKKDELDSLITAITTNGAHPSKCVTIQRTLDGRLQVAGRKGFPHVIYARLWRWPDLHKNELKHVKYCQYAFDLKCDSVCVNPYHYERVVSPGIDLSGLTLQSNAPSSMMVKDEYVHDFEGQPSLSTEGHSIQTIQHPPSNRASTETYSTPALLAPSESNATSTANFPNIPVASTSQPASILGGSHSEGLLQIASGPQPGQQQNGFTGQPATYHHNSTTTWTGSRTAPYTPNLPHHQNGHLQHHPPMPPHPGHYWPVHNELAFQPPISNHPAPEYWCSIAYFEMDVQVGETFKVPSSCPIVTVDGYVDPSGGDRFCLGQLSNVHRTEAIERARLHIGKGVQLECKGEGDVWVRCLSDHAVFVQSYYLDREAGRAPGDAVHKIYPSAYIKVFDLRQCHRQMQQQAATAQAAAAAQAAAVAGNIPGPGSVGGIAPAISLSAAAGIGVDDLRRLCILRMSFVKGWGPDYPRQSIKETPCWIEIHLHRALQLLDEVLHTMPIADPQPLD

[5] = molecular target: phosphorylated Smad3 (His-tagged, full length) (UniProt P84022); experiment: HTRF, well D16 Smad3P
phosphorylated Smad3 (His-tagged, full length), sequence (P84022 whole entry): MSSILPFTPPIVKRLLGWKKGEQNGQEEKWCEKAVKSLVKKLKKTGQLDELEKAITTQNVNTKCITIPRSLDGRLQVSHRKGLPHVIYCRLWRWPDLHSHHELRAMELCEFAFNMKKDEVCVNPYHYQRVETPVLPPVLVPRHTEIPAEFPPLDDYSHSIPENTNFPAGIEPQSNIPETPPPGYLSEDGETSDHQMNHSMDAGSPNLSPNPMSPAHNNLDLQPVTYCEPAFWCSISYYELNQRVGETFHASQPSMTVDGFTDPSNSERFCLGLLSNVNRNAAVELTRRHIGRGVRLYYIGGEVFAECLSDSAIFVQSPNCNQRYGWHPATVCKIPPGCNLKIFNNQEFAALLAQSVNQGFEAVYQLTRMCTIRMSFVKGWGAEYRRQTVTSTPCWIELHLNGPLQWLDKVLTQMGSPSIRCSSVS

[6] = molecular target: phosphorylated Smad3 (His-tagged, full length) (UniProt P84022); experiment: HTRF, well D15 Smad3P
[7] = molecular target: Smad4 (Strep-tagged, full length) (UniProt Q13485); experiment: HTRF, well D19 Smad4
[8] = molecular target: Smad4 (Strep-tagged, full length) (UniProt Q13485); experiment: HTRF, well D18 Smad4
[9] = molecular target: unphosphorylated Smad2 (His-tagged, full length) (UniProt Q15796); experiment: HTRF, well D11 Smad2 (No Smad well: 260)
[10] = molecular target: unphosphorylated Smad2 (His-tagged, full length) (UniProt Q15796); experiment: HTRF, well D13 Smad2
[11] = molecular target: unphosphorylated Smad2 (His-tagged, full length) (UniProt Q15796); experiment: HTRF, well D14 Smad2
[12] = molecular target: unphosphorylated Smad2 (His-tagged, full length) (UniProt Q15796); experiment: HTRF, well D12 Smad2
[13] = molecular target: phosphorylated Smad2 (His-tagged, full length, from Sf9 cells co-infected with Alk5 T204D virus) (UniProt Q15796); experiment: HTRF, well D09 Smad2P
[14] = molecular target: phosphorylated Smad2 (His-tagged, full length, from Sf9 cells co-infected with Alk5 T204D virus) (UniProt Q15796); experiment: HTRF, well D05 Smad2P
[15] = molecular target: phosphorylated Smad2 (His-tagged, full length, from Sf9 cells co-infected with Alk5 T204D virus) (UniProt Q15796); experiment: HTRF, well D06 Smad2P with unlabelled GST-CBP competitor added after equilibrium
[16] = molecular target: Smad4 (Strep-tagged, full length) (UniProt Q13485); experiment: HTRF, well D17 Smad4
[17] = molecular target: phosphorylated Smad2 (His-tagged, full length, from Sf9 cells co-infected with Alk5 T204D virus) (UniProt Q15796); experiment: HTRF, well D10 Smad2P with unlabelled GST-CBP competitor added after equilibrium
[18] = molecular target: phosphorylated Smad2 (His-tagged, full length, from Sf9 cells co-infected with Alk5 T204D virus) (UniProt Q15796); experiment: HTRF, IC5-GST-CBP binding to Smad2-P, no inhibitor
[19] = molecular target: phosphorylated Smad2 (His-tagged, full length, from Sf9 cells co-infected with Alk5 T204D virus) (UniProt Q15796); experiment: HTRF competition, biotin-FAST on Smad2-P, inhibitor at 40 µM
[20] = molecular target: phosphorylated Smad2 (His-tagged, full length, from Sf9 cells co-infected with Alk5 T204D virus) (UniProt Q15796); experiment: HTRF competition, biotin-FAST on Smad2-P, inhibitor at 20 µM
[21] = molecular target: phosphorylated Smad2 (His-tagged, full length, from Sf9 cells co-infected with Alk5 T204D virus) (UniProt Q15796); experiment: HTRF competition, biotin-FAST on Smad2-P, inhibitor at 50 µM

## C-JUN: biotinylated 24-mer c-Jun Smad interaction motif peptide, HTRF ligand (LKQKVMNHVNSGCQLMLTQQLQTF; also: biotinylated, site not given here)
Smad3-P; 1 μM biotinylated peptide
  time for binding reaction to reach equilibrium: about 90 minutes

## Europium-cryptate αGST antibody (Packard)
[1]
  Emission 665: 5170 counts
  Normalized Counts: 6800 counts
[2]
  Emission 665: 9450 counts
  Normalized Counts: 9110 counts

## GST-trx-FAST aptamer with two amino acids deleted from the C-terminus of the FAST SIM (from UniProt O75593 327-348) (designed binder)
[3]
  fold higher IC50 than GST-trx-FAST: 10 fold

## GST-trx-FAST aptamer with two amino acids deleted from the N-terminus of the FAST SIM (from UniProt O75593 329-350) (designed binder)
[3]
  fold higher IC50 than GST-trx-FAST: 10 fold

## GST-trx: 35 kd GST-trx fusion protein, scaffold without SIM insert [reference compound]
Smad2-P; 8 μg/50 ul
  effect on binding (in words): very little effect
Smad3-P
  competitive inhibition of FAST Smad interaction motif binding to Smad 3 (phosphorylated) (in words): did not interfere with binding

## IC5-labelled GST-CBP fusion protein (from UniProt P08515 1-218)
[4]
  Normalized Counts: 150 counts
[5]
  Normalized Counts: 683 counts
[6]
  Normalized Counts: 665 counts
[7]
  Normalized Counts: 252 counts
[8]
  Normalized Counts: 206 counts
[9]
  Normalized Counts: 334 counts
[10]
  Normalized Counts: 311 counts
[11]
  Normalized Counts: 327 counts
[12]
  Normalized Counts: 315 counts
[13]
  Normalized Counts: 617 counts
[14]
  Normalized Counts: 593 counts
[15]
  Normalized Counts: 322 counts
[16]
  Normalized Counts: 149 counts
[17]
  Normalized Counts: 353 counts
[18]
  Average Normalized Counts: 751 counts
  Percent of Control (minus Background): 100%

## JUN 24 mer: 24-mer peptide of the Smad interaction motif from c-Jun (LKQKVMNHVNSGCQLMLTQQLQTF)
Smad2-P
  competition for Biotin-FAST binding to Smad-2P (in words): inability
Smad2-P; 20 μM inhibitor peptide
  Average Normalized Counts: 1984
  Percent of Control (minus Background): 106%
Smad2-P; 40 μM inhibitor peptide
  Average Normalized Counts: 1964
  Percent of Control (minus Background): 105%

## cJUN-24mer peptide (unlabelled) (from UniProt P05412 308-331)
[19]
  Average Normalized Counts: 1960 counts
  Percent of Control (minus Background): 105%
[20]
  Average Normalized Counts: 1980 counts
  Percent of Control (minus Background): 106%

## hFAST-13mer peptide (from UniProt O75593 331-343)
[21]
  Average Normalized Counts: 1980 counts
  Percent of Control (minus Background): 106%
[20]
  Average Normalized Counts: 2020 counts
  Percent of Control (minus Background): 108%

## hFAST-24mer PP>AA peptide (from UniProt O75593 327-350)
[21]
  Average Normalized Counts: 1860 counts
[20]
  Average Normalized Counts: 1920 counts
